B1: CD80 variant A26E/Q33L/E35D/M47L/L85Q IgV-Fc (Fc fusion)
chain: VIHVTKEVKEVATLSCGHNVSVEELEQTRIYWLKDKKMVLTMMSGDLNIWPEYKNRTIFDITNNLSIVILALRPSDEGTYECVVQKYEKDAFKREHLAEVT
B2: CD80 variant Q33L/E35D/M47I IgV-Fc (Fc fusion)
chain: VIHVTKEVKEVATLSCGHNVSVEELAQTRIYWLKDKKMVLTMMSGDINIWPEYKNRTIFDITNNLSIVILALRPSDEGTYECVVLKYEKDAFKREHLAEVT
B3: CD80 variant Q33L/E35D/M47V/L85Q IgV-Fc (Fc fusion)
chain: VIHVTKEVKEVATLSCGHNVSVEELAQTRIYWLKDKKMVLTMMSGDVNIWPEYKNRTIFDITNNLSIVILALRPSDEGTYECVVQKYEKDAFKREHLAEVT
B4: CD80 variant Y31S/E35D/M47L/T79L/E88G IgV-Fc (Fc fusion)
chain: VIHVTKEVKEVATLSCGHNVSVEELAQTRISWQKDKKMVLTMMSGDLNIWPEYKNRTIFDITNNLSIVILALRPSDEGLYECVVLKYGKDAFKREHLAEVT
B5: CD80 variant A26E/E35D/M43T/M47L/L85Q/R94Q IgV-Fc (Fc fusion)
chain: VIHVTKEVKEVATLSCGHNVSVEELEQTRIYWQKDKKMVLTMTSGDLNIWPEYKNRTIFDITNNLSIVILALRPSDEGTYECVVQKYEKDAFKQEHLAEVT
B6: CD80 variant H18Y/E35D/M47L IgV-Fc (Fc fusion)
chain: VIHVTKEVKEVATLSCGYNVSVEELAQTRIYWQKDKKMVLTMMSGDLNIWPEYKNRTIFDITNNLSIVILALRPSDEGTYECVVLKYEKDAFKREHLAEVT
B7: CD80 variant Q27H/Q33L/E35D/M47V/N55D/L85Q/K89N IgV-Fc (Fc fusion)
chain: VIHVTKEVKEVATLSCGHNVSVEELAHTRIYWLKDKKMVLTMMSGDVNIWPEYKDRTIFDITNNLSIVILALRPSDEGTYECVVQKYENDAFKREHLAEVT
B8: CD80 variant Q33L/E35D/M47I/T62N/L85Q IgV-Fc (Fc fusion)
chain: VIHVTKEVKEVATLSCGHNVSVEELAQTRIYWLKDKKMVLTMMSGDINIWPEYKNRTIFDINNNLSIVILALRPSDEGTYECVVQKYEKDAFKREHLAEVT
B9: CD80 variant H18Y/V20A/Q33L/E35D/M47V/Y53F IgV-Fc (Fc fusion)
chain: VIHVTKEVKEVATLSCGYNASVEELAQTRIYWLKDKKMVLTMMSGDVNIWPEFKNRTIFDITNNLSIVILALRPSDEGTYECVVLKYEKDAFKREHLAEVT
B10: CD80 variant Q33L/E35D/T41S/M47V IgV-Fc (Fc fusion)
chain: VIHVTKEVKEVATLSCGHNVSVEELAQTRIYWLKDKKMVLSMMSGDVNIWPEYKNRTIFDITNNLSIVILALRPSDEGTYECVVLKYEKDAFKREHLAEVT
B11: CD80 variant E35D/M47I/E77A/L85Q/R94W IgV-Fc (Fc fusion)
chain: VIHVTKEVKEVATLSCGHNVSVEELAQTRIYWQKDKKMVLTMMSGDINIWPEYKNRTIFDITNNLSIVILALRPSDAGTYECVVQKYEKDAFKWEHLAEVT
B12: CD80 variant Q33L/E35D/T41S/M43I IgV-Fc (Fc fusion)
chain: VIHVTKEVKEVATLSCGHNVSVEELAQTRIYWLKDKKMVLSMISGDMNIWPEYKNRTIFDITNNLSIVILALRPSDEGTYECVVLKYEKDAFKREHLAEVT
B13: CD80 variant V22A/E23D/Q33L/E35D/M47V IgV-Fc (Fc fusion)
chain: VIHVTKEVKEVATLSCGHNVSADELAQTRIYWLKDKKMVLTMMSGDVNIWPEYKNRTIFDITNNLSIVILALRPSDEGTYECVVLKYEKDAFKREHLAEVT
B14: CD80 variant H18L/V22A/E35D/M47L/N48T/L85Q IgV-Fc (Fc fusion)
chain: VIHVTKEVKEVATLSCGLNVSAEELAQTRIYWQKDKKMVLTMMSGDLTIWPEYKNRTIFDITNNLSIVILALRPSDEGTYECVVQKYEKDAFKREHLAEVT
B15: CD80 variant H18Y/Q33L/E35D/M47I IgV-Fc (Fc fusion)
chain: VIHVTKEVKEVATLSCGYNVSVEELAQTRIYWLKDKKMVLTMMSGDINIWPEYKNRTIFDITNNLSIVILALRPSDEGTYECVVLKYEKDAFKREHLAEVT
B16: CD80 variant A26E/Q33L/E35D/M47L IgV-Fc (Fc fusion)
chain: VIHVTKEVKEVATLSCGHNVSVEELEQTRIYWLKDKKMVLTMMSGDLNIWPEYKNRTIFDITNNLSIVILALRPSDEGTYECVVLKYEKDAFKREHLAEVT
B17: CD80 variant H18Y/A26E/Q33L/E35D/M47L/L85Q IgV-Fc (Fc fusion)
chain: VIHVTKEVKEVATLSCGYNVSVEELEQTRIYWLKDKKMVLTMMSGDLNIWPEYKNRTIFDITNNLSIVILALRPSDEGTYECVVQKYEKDAFKREHLAEVT
B18: CD80 variant Q33K/E35D/D46V/L85Q IgV-Fc (Fc fusion)
chain: VIHVTKEVKEVATLSCGHNVSVEELAQTRIYWKKDKKMVLTMMSGVMNIWPEYKNRTIFDITNNLSIVILALRPSDEGTYECVVQKYEKDAFKREHLAEVT
B19: CD80 variant E7D/E35D/M47I/L97Q IgV-Fc (Fc fusion)
chain: VIHVTKDVKEVATLSCGHNVSVEELAQTRIYWQKDKKMVLTMMSGDINIWPEYKNRTIFDITNNLSIVILALRPSDEGTYECVVLKYEKDAFKREHQAEVT
B20: CD80 variant Q33L/E35D/M47I/L85Q IgV-Fc (Fc fusion)
chain: VIHVTKEVKEVATLSCGHNVSVEELAQTRIYWLKDKKMVLTMMSGDINIWPEYKNRTIFDITNNLSIVILALRPSDEGTYECVVQKYEKDAFKREHLAEVT

How the values were obtained:
CD28 (human) = CD28 (human) (UniProt P10747); assay: flow cytometry, Jurkat cells (CD28)
PD-L1 (human) = assay: flow cytometry, CHO cells stably expressing PD-L1
Sequence of PD-L1 (human) (chain, as listed by the source): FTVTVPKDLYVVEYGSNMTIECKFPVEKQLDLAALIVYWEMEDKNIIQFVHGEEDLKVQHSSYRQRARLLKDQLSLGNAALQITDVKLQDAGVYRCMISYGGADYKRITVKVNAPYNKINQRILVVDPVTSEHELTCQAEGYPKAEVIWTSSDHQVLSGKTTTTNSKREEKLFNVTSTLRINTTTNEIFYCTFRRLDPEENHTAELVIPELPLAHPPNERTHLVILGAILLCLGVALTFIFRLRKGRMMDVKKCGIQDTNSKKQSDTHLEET

CTLA4 (human) = assay: flow cytometry, CHO cells stably expressing CTLA4
Sequence of CTLA4 (human) (chain, as listed by the source): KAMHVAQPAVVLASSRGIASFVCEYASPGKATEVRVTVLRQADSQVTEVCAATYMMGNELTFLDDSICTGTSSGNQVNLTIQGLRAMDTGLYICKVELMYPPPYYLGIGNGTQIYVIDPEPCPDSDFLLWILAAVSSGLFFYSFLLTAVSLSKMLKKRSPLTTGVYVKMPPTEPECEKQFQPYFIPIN

Row | Binder | Fold change to WT (CD28 (human)) | MFI at 33.3 nM (CD28 (human)) | Fold change to WT (PD-L1 (human)) | MFI at 33.3 nM (PD-L1 (human)) | Fold change to WT CD80 (CTLA4 (human)) | MFI at 33.3 nM (CTLA4 (human))
1 | B1 | 0.04 fold | 274 MFI | 7.89 fold | 62700 MFI | 0.01 fold | 1170 MFI
2 | B2 | 0.04 fold | 282 MFI | 4.7 fold | 37400 MFI | 0.09 fold | 15900 MFI
3 | B3 | 0.04 fold | 268 MFI | 5.97 fold | 47400 MFI | 0.42 fold | 75400 MFI
4 | B4 | 0.04 fold | 278 MFI | 4.9 fold | 38900 MFI | 0.01 fold | 1100 MFI
5 | B5 | 0.03 fold | 260 MFI | 8.57 fold | 68100 MFI | 1.56 fold | 278000 MFI
6 | B6 | 0.66 fold | 5070 MFI | 5.56 fold | 44200 MFI | 1.59 fold | 284000 MFI
7 | B7 | 0.04 fold | 269 MFI | 1.86 fold | 14800 MFI | 0.31 fold | 56100 MFI
8 | B8 | 0.04 fold | 284 MFI | 9.14 fold | 72600 MFI | 0.01 fold | 1660 MFI
9 | B9 | 0.03 fold | 260 MFI | 15.2 fold | 121000 MFI | 0.02 fold | 2880 MFI
10 | B10 | 0.04 fold | 287 MFI | 5.52 fold | 43800 MFI | 0.08 fold | 14500 MFI
11 | B11 | 0.04 fold | 272 MFI | 8.12 fold | 64500 MFI | 1.38 fold | 247000 MFI
12 | B12 | 0.06 fold | 433 MFI | 5.66 fold | 44900 MFI | 0.04 fold | 6390 MFI
13 | B13 | 0.04 fold | 274 MFI | 9.51 fold | 75500 MFI | 0.02 fold | 3640 MFI
14 | B14 | 0.06 fold | 434 MFI | 12.3 fold | 98100 MFI | 2.09 fold | 374000 MFI
15 | B15 | 0.04 fold | 295 MFI | 6.02 fold | 47800 MFI | 0.03 fold | 5540 MFI
16 | B16 | 0.04 fold | 271 MFI | 7.67 fold | 60900 MFI | 0.01 fold | 1320 MFI
17 | B17 | 0.04 fold | 272 MFI | 9.64 fold | 76600 MFI | 0.01 fold | 2090 MFI
18 | B18 | 0.03 fold | 257 MFI | 3.36 fold | 26700 MFI | 0.05 fold | 8510 MFI
19 | B19 | 0.04 fold | 273 MFI | 1.84 fold | 14600 MFI | 1.52 fold | 271000 MFI
20 | B20 | 0.04 fold | 287 MFI | 8.05 fold | 63900 MFI | 0.11 fold | 20500 MFI

From patent US20250163127A1
